Results taken from patent publication US12715909 (ENTHERA S R L, dated 2026).
Changes are numbered by the printed parent chain. One block for each binder: values may come before it.

Assays:
human IGFBP5 [1] = target: T1, human IGFBP5 (human, UniProt P24593 21-272); experiment: ELISA, scFv, secondary screening
T1 construct: Bought protein; in BLI it was in solution; also called hIGFBP-5
Procedure: (§1) At the end of the discovery process, each selection output was screened for antigen-specific antibodies and the binding characteristics of monoclonal antibody clones was analysed. For this purpose, 3072 single colonies were used for scFv antibody production. […] 192 of those ELISA positive clones were selected for a secondary screening. For that purpose, a second batch of scFv were produced and tested on a broader panel of antigens: Streptavidin+biotinylated human IGFBP5, Streptavidin+biotinylated murine IGFBP5, Streptavidin, BSA, Human IGFBP1, Human IGFBP2, Human IGFBP3, Human IGFBP4, Human IGFBP5 and Human IGFBP6. […] Binding to human IGFBP1, human IGFBP2, human IGFBP3, human IGFBP4 and human IGFBP6 was not detected. […] The scFv DNA sequence was amplified by PCR and cloned into YUMAB's mammalian scFv-Fc expression vector, resulting in a genetic fusion of the scFv with a human IgG4 Fc. Bacterial clones with a correctly cloned scFv gene were used for isolation of transfection grade DNA. The DNA was used for the transient transfection of HEK cells which produced and secreted the antibody into the culture medium. The antibodies were purified by affinity chromatography (Protein A) and re-buffered in PBS. The protein concentration was determined by UV/VIS spectrometry and purity was checked by Coomassie staining. 13 of the 15 antibodies could be successfully produced in the scFv-Fc format.

mouse IGFBP5 [2] = target: T2, mouse IGFBP5 (mouse, UniProt Q07079 20-271); experiment: ELISA, scFv, secondary screening
T2 construct: Bought protein; in solution in BLI; also called mIGFBP-5; murine IGFBP5
T2 sequence (Q07079 20-271 limits assumed): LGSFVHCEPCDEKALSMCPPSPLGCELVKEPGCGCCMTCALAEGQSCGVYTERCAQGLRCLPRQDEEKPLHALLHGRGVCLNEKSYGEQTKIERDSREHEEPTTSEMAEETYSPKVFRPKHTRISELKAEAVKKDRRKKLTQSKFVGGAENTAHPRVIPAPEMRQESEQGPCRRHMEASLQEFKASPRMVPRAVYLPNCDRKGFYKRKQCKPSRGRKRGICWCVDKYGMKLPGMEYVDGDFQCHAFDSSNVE
Procedure: as §1

human IGFBP1 = target: T3, human IGFBP1 (human, UniProt P08833 26-259); experiment: ELISA, scFv, secondary screening
T3 construct: Bought protein
T3 sequence (looked up): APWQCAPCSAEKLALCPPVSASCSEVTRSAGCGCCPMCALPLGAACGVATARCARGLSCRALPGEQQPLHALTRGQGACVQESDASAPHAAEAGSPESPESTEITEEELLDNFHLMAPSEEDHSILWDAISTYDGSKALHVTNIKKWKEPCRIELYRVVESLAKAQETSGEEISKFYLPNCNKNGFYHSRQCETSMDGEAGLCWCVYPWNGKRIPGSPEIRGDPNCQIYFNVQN
Procedure: as §1

human IGFBP2 = target: T4, human IGFBP2 (human, UniProt P18065 37-325, limits assumed); experiment: ELISA, scFv, secondary screening
T4 construct: Bought protein
T4 sequence (looked up): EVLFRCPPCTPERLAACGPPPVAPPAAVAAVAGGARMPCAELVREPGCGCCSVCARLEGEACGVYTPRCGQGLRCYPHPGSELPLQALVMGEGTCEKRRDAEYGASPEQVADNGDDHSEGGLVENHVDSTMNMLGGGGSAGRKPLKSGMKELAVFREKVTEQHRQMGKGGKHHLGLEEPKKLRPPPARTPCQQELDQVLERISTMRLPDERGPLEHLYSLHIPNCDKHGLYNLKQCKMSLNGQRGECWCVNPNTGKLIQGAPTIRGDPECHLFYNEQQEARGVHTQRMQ
Procedure: as §1

human IGFBP3 = target: T5, human IGFBP3 (human, UniProt P17936 28-291); experiment: ELISA, scFv, secondary screening
T5 construct: Bought protein
T5 sequence (P17936 28-291 limits assumed): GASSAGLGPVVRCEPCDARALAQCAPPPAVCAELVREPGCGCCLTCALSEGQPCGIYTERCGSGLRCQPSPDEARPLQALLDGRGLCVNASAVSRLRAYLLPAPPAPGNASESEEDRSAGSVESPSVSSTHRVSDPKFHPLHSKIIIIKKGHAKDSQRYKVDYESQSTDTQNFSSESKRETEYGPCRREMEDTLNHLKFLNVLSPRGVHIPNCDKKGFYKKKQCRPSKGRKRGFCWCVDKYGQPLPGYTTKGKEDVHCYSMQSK
Procedure: as §1

human IGFBP4 = target: T6, human IGFBP4 (human, UniProt P22692 22-258); experiment: ELISA, scFv, secondary screening
T6 construct: Bought protein
T6 sequence (looked up): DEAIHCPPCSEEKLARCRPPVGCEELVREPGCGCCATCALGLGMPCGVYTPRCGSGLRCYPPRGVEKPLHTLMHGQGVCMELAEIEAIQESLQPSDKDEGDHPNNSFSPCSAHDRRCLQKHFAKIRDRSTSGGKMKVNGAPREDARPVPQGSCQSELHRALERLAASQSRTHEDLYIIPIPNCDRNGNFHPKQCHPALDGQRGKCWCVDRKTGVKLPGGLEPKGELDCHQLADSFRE
Procedure: as §1

human IGFBP6 = target: T7, human IGFBP6 (human, UniProt P24592 28-240, limits assumed); experiment: ELISA, scFv, secondary screening
T7 construct: Bought protein
T7 sequence (looked up): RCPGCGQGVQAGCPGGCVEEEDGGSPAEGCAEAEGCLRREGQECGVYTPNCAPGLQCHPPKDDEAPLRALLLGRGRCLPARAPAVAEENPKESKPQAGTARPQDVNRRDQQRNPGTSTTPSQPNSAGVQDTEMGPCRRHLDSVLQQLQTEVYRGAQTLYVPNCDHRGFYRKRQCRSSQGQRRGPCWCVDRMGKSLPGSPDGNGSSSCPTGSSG
Procedure: as §1

human IGFBP5 [3] = target: T1, human IGFBP5; experiment: BLI (Octet/BLItz), mAb captured via Fc on AHC biosensor, antigen in solution
Procedure: (§2) To assess the binding affinity in more detail, affinity measurements were performed using Biomolecular Interaction Analysis performed by an Octet platform (BLItz System), which is a Biolayer Interferometry (BLI) platform. To establish the assay, the target monoclonal antibody (mAb, 2 identical antigen binding moieties, 2 μg/ml in 1% BSA containing 0.05% Tween 20) was immobilized via Fc on the via AHC biosensor and the interaction with the antigen human IGFBP5 (R&D, cat n° 875-B5) and mouse IGFBP5 (R&D, cat n° 578-B5) at different concentration were measured.

mouse IGFBP5 [4] = target: T2, mouse IGFBP5; experiment: as above
Procedure: as §2

T1 sequence (P24593 21-272 limits assumed): as the sequence (Q07079 20-271 limits assumed) above, with G87R, T90V, V116I, V157I, P159S, F183L, A245T counted along it

- binding result (human IGFBP5 [1]): binds
- binding result (mouse IGFBP5 [2]): binds
- binding result (human IGFBP1): no binding
- binding result (human IGFBP2): no binding
- binding result (human IGFBP3): no binding
- binding result (human IGFBP4): no binding
- binding result (human IGFBP6): no binding
B1: A09 scFv (scFv, V domains shown)
VH: QVQLVESGAEVKKPGASVKVSCKASGYTFTSYGISWVRQAPGQGLEWMGWISAYNGNTNYAQKLQGRVTMTTDTSTSTAYMELRSLRSDDTAVYYCAREWELLGGLDYWGQGTLVTVSS
VL: QSALTQPASVSGSPGQSITISCTGTSSDVGGYNYVSWYQQHPGKAPKLMIYEVSNRPSGVSNRFSGSKSGNTASLTISGLQAEDEADYYCSSYTSSSTVVFGGGTKLTVL

- Kd (human IGFBP5 [3]): 0.1 nM
- Kd (mouse IGFBP5 [4]): 0.1 nM
B2: B09 full length mAb (antibody, V domains shown)
VH: B1 VH with E6Q, E99D, W100L, E101A, L102V, L103G, G104T, G105H, L106G
VL: QSALTQPASVSGSPGQSITISCTGTSSDVGGYNYVSWYQQHPGKAPKLMIYEVSNRPSGVSNRFSGSKSGNTASLTISGLQAEDEADYYCSSYTSSSTLEVVFGGGTKLTVL
notes: also called anti-IGFBP5 mAb B09

- binding result (human IGFBP5 [1]): binds
- binding result (mouse IGFBP5 [2]): binds
- binding result (human IGFBP1): no binding
- binding result (human IGFBP2): no binding
- binding result (human IGFBP3): no binding
- binding result (human IGFBP4): no binding
- binding result (human IGFBP6): no binding
B3: G01 scFv (scFv, V domains shown)
VH: QVQLVQSGAEVKKPGSSVKVSCKASGGTFSSYAISWVRQAPGQGLEWMGGIIPIFGTANYAQKFQGRVTITADESTSTAYMELSSLRSEDTAVYYCASITEGAFDYWGQGTLVTVSS
VL: AIQLTQSPSTLSASVGDRVTITCRASRTVGSWLAWYQQKPGKAPKLLIYDASNLQSGVPSRFSGSGSGTEFTLTISSLQPDDLSTYYCQQYNSSPYTFGQGTKVEIK
notes: scFv as screened by ELISA
